Reference: WO2020003077A1 (dated 2020)
Each block holds one binder with its values, some of them ahead of it.

Assays:
human thrombin [1] = molecular target: T1, human thrombin (human, UniProt P00734 314-363; P00734 364-622); assay: cell-based or functional assay
prothrombin = prothrombin (UniProt P00734 44-622); assay: ForteBio Octet, immobilized IgG
human thrombin [2] = molecular target: T1, human thrombin; assay: standard ELISA binding assay

thrombin hydrolysis of FVIII (feedback activation of thrombin via Xase complex), antibody effect (human thrombin [1]): 7 fold decrease | thrombin hydrolysis of platelet receptor PAR-1 peptide (activation of platelets), antibody effect (human thrombin [1]): 15 fold decrease
B1: wild-type anti-exosite 1 IgA antibody (antibody, V domains shown)
VH: QVQLIQSGSAVKKPGASVRVSCKVSGYTLTEAAIHWVRQAPGKGLEWMGGLDPQDGETVYAQQFKGRVTMTEDRSTDTAYMEVNNLRSEDTATYYCTTGDFSEFEPFSMDYFHFWGQGTVVTVAS
VL: EIVLTQSPATLSLSPGERATLSCRASQNVSSFLAWYQHKPGQAPRLLIYDASSRATDIPIRFSGSGSGTDFTLTISGLEPEDFAVYYCQQRRSWPPLTFGGGTKVEIKR

binding result (prothrombin): no binding (tested: 500nM)
B2: synthetic anti-exosite 1 IgG antibody (antibody, V domains shown)
VH: QVQLIQSGSAVKKPGASVRVSCKVSGYTLTEAAIHWVRQAPGKGLEWMGGLDPQDGETVYAQQFKGRVTMTEDRSTDTAYMEVNNLRSEDTATYYCTTGDFSEFEPFSMDYFHFWGQGTVVTVAS
VL: EIVLTQSPATLSLSPGERATLSCRASQNVSSFLAWYQHKPGQAPRLLIYDASSRATDIPIRFSGSGSGTDFTLTISGLEPEDFAVYYCQQRRSWPPLTFGGGTKVEIKR
notes: also called synthetic IgG; anti-exosite IgG antibody

binding result (human thrombin [2]): binds
B3: synthetic anti-exosite 1 IgG S30A variant antibody (antibody, name in Kabat numbering, V domains shown)
VH: QVQLIQSGSAVKKPGASVRVSCKVSGYTLTEAAIHWVRQAPGKGLEWMGGLDPQDGETVYAQQFKGRVTMTEDRSTDTAYMEVNNLRSEDTATYYCTTGDFSEFEPFSMDYFHFWGQGTVVTVAS
VL: EIVLTQSPATLSLSPGERATLSCRASQNVASFLAWYQHKPGQAPRLLIYDASSRATDIPIRFSGSGSGTDFTLTISGLEPEDFAVYYCQQRRSWPPLTFGGGTKVEIKR
notes: also called ichorcumab S30A; ichorcumab
